The target of test [1] is T1, human PD-1-His (human, UniProt Q15116 25-167, limits assumed).
T1 construct: Antigen of the Octet assays; not shown: His tag
Briefly: Octet (BLI) sensorgram; XENP29708 loaded on the biosensor, analyte Sample ID XENP15593 at 300, 30, 3 nM [Cont.]. In general terms: Biolayer interferometry detects binding as a change in optical thickness at a sensor tip.

Test [2] deals with T2, cynomolgus PD-1-His (cynomolgus monkey).
T2 chain: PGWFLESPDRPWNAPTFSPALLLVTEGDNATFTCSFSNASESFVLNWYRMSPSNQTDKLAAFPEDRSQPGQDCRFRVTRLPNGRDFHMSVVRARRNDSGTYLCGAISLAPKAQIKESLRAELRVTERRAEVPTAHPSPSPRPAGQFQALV
As to the kind of experiment: Octet (BLI); antibody captured on anti-human Fc (AHC) biosensors and dipped into multiple concentrations of cynomolgus PD-1-His.

In test [3] the target is T1, human PD-1-His. Briefly: Octet (BLI); XENP29706 loaded on the biosensor, analyte Sample ID XENP15593 at 300, 30, 3 nM; KD (M) printed in the legend under the plot.
The target in test [4] is T1, human PD-1-His. Briefly: Octet.
Test [5] addresses T1, human PD-1-His. Briefly: Octet affinity screen; bivalent IgG1 format; reference mAb C[PD-1]_H1L1.
The target in test [6] is T1, human PD-1-His. As to the kind of experiment: Octet (BLI) sensorgram; XENP29712 loaded on the biosensor, analyte Sample ID XENP15593 at 300, 30, 3 nM [Cont.].
In test [7] the target is T1, human PD-1-His. Briefly: Octet (BLI) sensorgram; XENP29710 loaded on the biosensor, analyte Sample ID XENP15593 at 300, 30, 3 nM [Cont.].
In test [8] the target is T1, human PD-1-His. As to the kind of experiment: Octet (BLI) sensorgram; XENP29714 loaded on the biosensor, analyte Sample ID XENP15593 at 300, 30, 3 nM [Cont.].
Test [9] deals with T1, human PD-1-His. As to the kind of experiment: Octet (BLI) sensorgram; XENP29713 loaded on the biosensor, analyte Sample ID XENP15593 at 300, 30, 3 nM [Cont.].
Test [10] addresses T1, human PD-1-His. As to the kind of experiment: Octet (BLI) sensorgram; XENP29711 loaded on the biosensor, analyte Sample ID XENP15593 at 300, 30, 3 nM [Cont.].
Test [11] concerns the target T2, cynomolgus PD-1-His. As to the kind of experiment: sensorgram, panel Cyno PD-1; Octet per legend paragraph 199, axes printed as Response (RU) against Time.
Test [12] deals with T1, human PD-1-His. Briefly: sensorgram, panel Human PD-1; Octet per legend paragraph 199, axes printed as Response (RU) against Time (s).
Test [13] deals with T2, cynomolgus PD-1-His. As to the kind of experiment: sensorgram, panel Cyno PD-1; Octet per legend paragraph 199, axes printed as Response (RU) against Time.
Test [14] concerns the target T1, human PD-1-His. Briefly: sensorgram, panel Human PD-1; Octet per legend paragraph 199, axes printed as Response (RU) against Time (s). The source holds these as a separate data set.

Positions count from the first letter of the chain named. Numbers in names are those of the source.

The source of these data is patent publication US20240294593A1 (Genentech, published 2024).

In general, Kd refers to the constant that tells how readily two partners part at equilibrium. The low end stands for a tighter complex, the high end for a looser complex. By koff is commonly meant the rate constant with which the complex falls apart. A high value points to fast dissociation. By kon is commonly meant the rate constant with which the complex forms. The low end stands for slow association, the high end for fast association.

T1 sequence (Q15116 25-167 limits assumed): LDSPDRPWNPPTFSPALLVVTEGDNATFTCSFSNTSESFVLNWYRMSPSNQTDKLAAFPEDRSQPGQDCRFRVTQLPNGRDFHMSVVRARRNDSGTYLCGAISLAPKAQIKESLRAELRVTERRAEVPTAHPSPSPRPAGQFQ

B1: XENP29708 (W100Y) (antibody, V domains shown)
VH: EVQLVESGGGLVQPGGSLRLSCAASGFTFSSFGMHWVRQAPGKGLEWVSYISSGSSIIYYADSVKGRFTISRDNAKNSLYLQMNSLRAEDTAVYYCARGGRLVYSPDYWGQGTLVTVSS
VL: DIVMTQSPDSLAVSLGERATINCKSSQSLLNSGNQKNYLTWYQQKPGQPPKLLIYWASTRESGVPDRFTGSGSGTDFTLTISSLQAEDVAVYYCQNDYSYPFTFGSGTKLEIKR
notes: the panel label gives the substitution; also called mAb C[PD-1]_H1L1 W100Y (Kabat) variant; copies: 2 + 2
For the molecule B1, the binding result in test [1] was “no binding (tested: 300 nM)”.

B2: XENP28537 (humanized variant of mAb C, bivalent human IgG1) (antibody, V domains shown)
VH: B1 VH with Y104W
VL: DIVMTQSPLSLPVTPGEPASISCRSSQSLLNSGNQKNYLTWYLQKPGQPPQLLIYWASTRESGVPDRFTGSGSGTDFTLKISRVEAEDVGVYYCQNDYSYPFTFGSGTKLEIKR
notes: Human IgG1 with E233P/L234V/L235A/G236del/S267K
Turning to B2, the equilibrium dissociation constant (Kd) in test [2] is 42 nM.

B3: XENP29706 (W100F) (antibody, V domains shown)
VH: B1 VH with Y104F
VL: B1 VL
notes: the panel label gives the substitution; also called mAb C[PD-1]_H1L1 W100F (Kabat) variant; copies: 2 + 2
Consider B3, for which the dissociation constant Kd in test [3] came out at 309 nM.

B4: mAb C[PD-1]_H1_L1.1 (bivalent IgG1) (antibody, V domains shown)
VH: B1 VH with Y104W
VL: B1 VL with N31H
notes: Bivalent IgG1 format with E233P/L234V/L235A/G236_/S267K; copies: 2 + 2
In test [4], B4 registered a Kd of 5.46 nM, a koff of 0.000532 s⁻¹ and a kon of 97300 M⁻¹ s⁻¹. Moreover, the “fold improved affinity over WT” value in test [5] is > 2 fold.

B5: XENP28536 (mAb C[PD-1]_H1L1, bivalent human IgG1) (antibody, V domains shown)
VH: B1 VH with Y104W
VL: DIVMTQSPDSLAVSLGERATINCKSSQSLLNSGNQKNYLTWYQQKPGQPPKLLIYWASTRESGVPDRFTGSGSGTDFTLTISSLQAEDVAVYYCQNDYSYPFTFGSGTKLEIK
notes: Bivalent human IgG1 with E233P/L234V/L235A/G236del/S267K
For the molecule B5, the equilibrium dissociation constant (Kd) in [2] stood at 35.8 nM. That is a double-digit nanomolar value.

B6: mab_C[PD-1]_H1_L1.3 (bivalent IgG1) (antibody, V domains shown)
VH: B1 VH with Y104W
VL: B1 VL with N31S
notes: as for B4
In test [4], B6 gave a Kd of 10.8 nM, an off-rate constant (koff) of 0.00165 s⁻¹ and an association rate constant (kon) of 153000 M⁻¹ s⁻¹. The “fold improved affinity over WT” value in test [5] was > 2 fold.

B7: XENP29712 (W100S) (antibody, V domains shown)
VH: B1 VH with Y104S
VL: B1 VL
notes: the panel label gives the substitution; also called mAb C[PD-1]_H1L1 W100S (Kabat) variant; copies: 2 + 2
In the case of B7, in test [6], the binding result was “no binding (tested: 300 nM)”.

B8: XENP29710 (W100H) (antibody, V domains shown)
VH: B1 VH with Y104H
VL: B1 VL
notes: the panel label gives the substitution; also called mAb C[PD-1]_H1L1 W100H (Kabat) variant; copies: 2 + 2
In the case of B8, the binding result in [7] was “no binding (tested: 300 nM)”.

B9: XENP29714 (W100R) (antibody, V domains shown)
VH: B1 VH with Y104R
VL: B1 VL
notes: the panel label gives the substitution; also called mAb C[PD-1]_H1L1 W100R (Kabat) variant; copies: 2 + 2
As to B9, in test [8], the binding result was “no binding (tested: 300 nM)”.

B10: XENP29713 (W100E) (antibody, V domains shown)
VH: B1 VH with Y104E
VL: B1 VL
notes: the panel label gives the substitution; also called mAb C[PD-1]_H1L1 W100E (Kabat) variant; copies: 2 + 2
B10: the binding result in test [9] was “no binding (tested: 300 nM)”.

B11: XENP29711 (W100Q) (antibody, V domains shown)
VH: B1 VH with Y104Q
VL: B1 VL
notes: the panel label gives the substitution; also called mAb C[PD-1]_H1L1 W100Q (Kabat) variant; copies: 2 + 2
Turning to B11, the binding result in [10] is “no binding (tested: 300 nM)”.

B12: XENP31986 (mAb C H1_L1.1 x IL-15[D30N/E64Q/N65D/N71Q/N79Q/N112Q] w/(G4A) Linker) (Fc fusion)
chain: ITCPPPMSVEHADIWVKSYSLYSRERYICNSGFKRKAGTSSLTECVLNKATNVAHWTTPSLKCIRGGGGAGGGGAGGGGAGGGGAGGGGANWVNVISDLKKIEDLIQSMHIDATLYTESNVHPSCKVTAMKCFLLELQVISLESGDASIHDTVQDLIILAQNSLSSNGQVTESGCKECEELEEKNIKEFLQSFVHIVQMFIQTSEPKSSDKTHTCPPCPAPPVAGPSVFLFPPKPKDTLMISRTPEVTCVVVDVKHEDPEVKFNWYVDGVEVHNAKTKPREEEYNSTYRVVSVLTVLHQDWLNGKEYKCKVSNKALPAPIEKTISKAKGQPREPQVYTLPPSREEMTKNQVSLTCDVSGFYPSDIAVEWESDGQPENNYKTTPPVLDSDGSFFLYSKLTVDKSRWEQGDVFSCSVLHEALHSHYTQKSLSLSPGK
heavy: EVQLVESGGGLVQPGGSLRLSCAASGFTFSSFGMHWVRQAPGKGLEWVSYISSGSSIIYYADSVKGRFTISRDNAKNSLYLQMNSLRAEDTAVYYCARGGRLVWSPDYWGQGTLVTVSSASTKGPSVFPLAPSSKSTSGGTAALGCLVKDYFPEPVTVSWNSGALTSGVHTFPAVLQSSGLYSLSSVVTVPSSSLGTQTYICNVNHKPSNTKVDKKVEPKSCDKTHTCPPCPAPPVAGPSVFLFPPKPKDTLMISRTPEVTCVVVDVKHEDPEVKFNWYVDGVEVHNAKTKPREEQYNSTYRVVSVLTVLHQDWLNGKEYKCKVSNKALPAPIEKTISKAKGQPREPQVYTLPPSREQMTKNQVKLTCLVKGFYPSDIAVEWESNGQPENNYKTTPPVLDSDGSFFLYSKLTVDKSRWQQGNVFSCSVLHEALHSHYTQKSLSLSPGK
light: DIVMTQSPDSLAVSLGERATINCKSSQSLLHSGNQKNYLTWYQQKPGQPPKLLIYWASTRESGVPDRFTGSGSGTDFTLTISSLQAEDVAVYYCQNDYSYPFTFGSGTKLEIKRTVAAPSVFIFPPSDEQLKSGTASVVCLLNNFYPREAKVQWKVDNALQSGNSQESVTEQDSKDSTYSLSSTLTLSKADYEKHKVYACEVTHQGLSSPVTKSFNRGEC
notes: scIL-15/Rα x Fab format
In the case of B12, the Kd is 4.5 nM in test [11] and 4.3 nM in test [12].

B13: XENP32435 (PD-1-targeted IL-15/Rα-Fc having Trp engineered/affinity repaired mAb C[PD1]_H1.176_L1.140 and IL-15[D30N/E64Q/N65D/N71Q/N79Q/N112Q]) (Fc fusion)
chain: B12 chain
heavy: B12 heavy with F32L, W104F
light: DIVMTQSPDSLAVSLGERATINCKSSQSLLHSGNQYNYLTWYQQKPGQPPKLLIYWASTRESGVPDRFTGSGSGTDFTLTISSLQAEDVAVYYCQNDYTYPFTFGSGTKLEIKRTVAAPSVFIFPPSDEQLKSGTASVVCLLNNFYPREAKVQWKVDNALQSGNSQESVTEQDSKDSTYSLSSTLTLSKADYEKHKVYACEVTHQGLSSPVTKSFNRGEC
Consider B13, for which the dissociation constant Kd in test [13] was 2.7 nM; in [14], 2.8 nM.
